{"source": "paper PMC5922973", "about": "“Topoisomerase VI senses and exploits both DNA crossings and bends to facilitate strand passage” (eLife, 2018)", "molecular_target": "T1, topo VI KGRR-AAA (Methanosarcina mazei, UniProt Q8PUB7;Q8PUB8 1-369;1-621, K186A;R188A;R189A)", "T1 sequence 1": "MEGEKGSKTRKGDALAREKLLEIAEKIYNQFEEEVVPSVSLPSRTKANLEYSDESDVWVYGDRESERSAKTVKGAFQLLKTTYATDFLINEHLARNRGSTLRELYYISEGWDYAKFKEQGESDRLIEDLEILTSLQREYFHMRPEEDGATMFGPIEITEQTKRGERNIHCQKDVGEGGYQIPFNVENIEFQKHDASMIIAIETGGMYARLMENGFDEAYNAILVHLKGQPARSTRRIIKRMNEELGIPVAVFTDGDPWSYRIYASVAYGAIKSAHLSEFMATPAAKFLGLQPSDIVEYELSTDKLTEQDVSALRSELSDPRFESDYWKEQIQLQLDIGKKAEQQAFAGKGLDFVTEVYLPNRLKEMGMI", "T1 sequence 2": "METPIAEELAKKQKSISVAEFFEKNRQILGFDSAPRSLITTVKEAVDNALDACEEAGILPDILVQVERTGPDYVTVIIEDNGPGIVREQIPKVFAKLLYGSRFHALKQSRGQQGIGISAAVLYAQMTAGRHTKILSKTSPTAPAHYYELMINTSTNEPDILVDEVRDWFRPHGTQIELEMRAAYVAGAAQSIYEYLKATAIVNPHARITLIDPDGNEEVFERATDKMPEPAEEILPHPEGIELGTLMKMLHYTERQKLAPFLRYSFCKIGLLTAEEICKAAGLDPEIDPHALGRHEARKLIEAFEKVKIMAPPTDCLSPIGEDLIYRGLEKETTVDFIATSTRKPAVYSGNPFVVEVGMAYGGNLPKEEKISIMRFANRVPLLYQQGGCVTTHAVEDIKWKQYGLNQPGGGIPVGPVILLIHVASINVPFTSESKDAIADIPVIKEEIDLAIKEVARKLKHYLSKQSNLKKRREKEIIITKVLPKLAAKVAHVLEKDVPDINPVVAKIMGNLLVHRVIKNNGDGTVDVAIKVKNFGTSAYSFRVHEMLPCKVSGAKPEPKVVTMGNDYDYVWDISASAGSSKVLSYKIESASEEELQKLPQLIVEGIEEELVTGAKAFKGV", "assay": "fluorescence anisotropy; 10 mM Mg2+; ambiguous, poorly defined dFAmax; FA: 20 nM probe, 50 mM K-glutamate, 20 mM HEPES-KOH pH 7.5, 10 mM MgCl2, 5% glycerol, 1 mM TCEP, 0.1 mg/mL BSA; incubated on ice, read at ambient temperature; competition with 100 nM enzyme", "settings": "protein: recombinant; tags: N-terminal His6-TEV on Top6B, removed; chain copies: 2;2; label: 5'-FAM on S1; four-way Holliday junction, stacked-X, two GAAA-capped arms", "data": [{"binder": "16 x 20 bp stacked junction (structured_DNA) DNA 1: CGAATACTCAGCTCAACCGAAAGGTTGAGCCTTCGCTCGAAAGAGCGAAGTACTCTTCCG DNA 2: CGGAAGAGTATGAGTATTCG", "values": [{"measurement": "Kd", "result": "~758", "unit": "nM"}]}]}
